From doi:10.1101/2025.09.30.679617 (bioRxiv, 2025)
Where a chain is given by its changes, count along the chain named. Ends that are not written are not given here.

Molecular target: T1, PfCSP junctional peptide 21 (Plasmodium falciparum, strain not …, also: biotinylated, position not given here)
T1 chain: NPDPNANPNVDPNAN

B1: Run1_Seq1 (antibody, V domains shown)
VH: QVQLVQSGTEVKKPGASVKVSCKASGYTFTSYAIHWVRQAPGQRLEWMGWIKVGNGNTRYSQKFQGRVTITRDTSASTAYMELSSLRSEDTAVYYCALLTVLTADDAFDFWGQGTMVTVSS
VL: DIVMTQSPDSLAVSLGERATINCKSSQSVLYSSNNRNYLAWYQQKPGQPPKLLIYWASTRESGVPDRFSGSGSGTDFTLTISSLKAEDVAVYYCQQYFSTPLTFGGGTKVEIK
- binding result: binds

B2: Run1_Seq2 (antibody, V domains shown)
VH: B1 VH with S77N, A104P
VL: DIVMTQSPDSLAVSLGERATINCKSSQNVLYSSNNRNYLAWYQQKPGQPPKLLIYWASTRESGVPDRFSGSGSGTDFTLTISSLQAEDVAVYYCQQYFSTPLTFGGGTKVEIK
- binding result: binds

B3: Run3_Seq1 (antibody, V domains shown)
VH: B1 VH with T9A, K12R, S31T, V53A, G54D, S75F, L102V, A104P, A107T, F110I
VL: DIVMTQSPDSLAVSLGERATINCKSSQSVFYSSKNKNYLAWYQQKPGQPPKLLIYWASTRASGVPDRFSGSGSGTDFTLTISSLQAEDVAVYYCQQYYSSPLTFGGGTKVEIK
- binding result: binds

B4: Run5_Seq2 (antibody, V domains shown)
VH: B1 VH with T9A, V53A, V68I, L102I, A104P, D106Y, F110I
VL: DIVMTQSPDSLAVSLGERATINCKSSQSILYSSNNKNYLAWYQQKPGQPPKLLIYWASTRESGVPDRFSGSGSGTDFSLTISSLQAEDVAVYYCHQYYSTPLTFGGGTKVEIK
- binding result: binds

B5: Run7_Seq1 (antibody, V domains shown)
VH: B1 VH with T9A, S31K, I34M, M48L, V53A, K63R, G66D, L102I, A104P, F110I
VL: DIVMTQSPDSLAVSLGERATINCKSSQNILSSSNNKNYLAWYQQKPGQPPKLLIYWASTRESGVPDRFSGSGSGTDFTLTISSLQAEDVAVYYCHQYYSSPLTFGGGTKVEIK
- binding result: binds

B6: Run4_Seq2 (antibody, V domains shown)
VH: B1 VH with I34V, V53A, A79V, L102I, A104P, F110V
VL: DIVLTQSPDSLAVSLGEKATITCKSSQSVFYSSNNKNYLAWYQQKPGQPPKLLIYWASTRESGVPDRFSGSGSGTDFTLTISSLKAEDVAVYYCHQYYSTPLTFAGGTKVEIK
- binding result: binds

B7: Run2_Seq2 (antibody, V domains shown)
VH: B1 VH with T9A, S31N, V53A, G66D, I70L, Y80F, L102V, A104P, F110I, M116L
VL: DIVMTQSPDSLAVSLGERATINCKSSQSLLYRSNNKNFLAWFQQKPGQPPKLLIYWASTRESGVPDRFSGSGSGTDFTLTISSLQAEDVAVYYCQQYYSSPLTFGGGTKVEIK
- binding result: binds

B8: Run5_Seq1 (antibody, V domains shown)
VH: B1 VH with T9A, V53A, N55K, V68I, A79V, S84N, L102I, A104P, D106Y, F110I
VL: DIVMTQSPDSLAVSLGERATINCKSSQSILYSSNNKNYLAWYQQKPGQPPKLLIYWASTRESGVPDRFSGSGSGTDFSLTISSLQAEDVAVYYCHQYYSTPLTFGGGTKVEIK
- binding result: binds

B9: Run4_Seq1 (antibody, V domains shown)
VH: B1 VH with V53A, A79V, L102I, A104P, F110V
VL: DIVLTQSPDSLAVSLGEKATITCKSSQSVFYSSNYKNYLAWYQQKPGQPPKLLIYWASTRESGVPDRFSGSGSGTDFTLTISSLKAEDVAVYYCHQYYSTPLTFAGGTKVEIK
- binding result: binds

B10: Run2_Seq1 (antibody, V domains shown)
VH: B1 VH with T9A, V53A, I70L, S84N, L102V, A104P, A107V, F110I
VL: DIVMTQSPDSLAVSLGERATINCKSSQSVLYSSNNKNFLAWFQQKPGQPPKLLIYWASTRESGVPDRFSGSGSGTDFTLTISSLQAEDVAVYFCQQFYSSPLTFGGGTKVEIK
- binding result: binds

B11: Run7_Seq2 (antibody, V domains shown)
VH: B1 VH with T9A, I34M, M48L, V53A, K63R, R72G, S84R, L102I, A104P, F110I
VL: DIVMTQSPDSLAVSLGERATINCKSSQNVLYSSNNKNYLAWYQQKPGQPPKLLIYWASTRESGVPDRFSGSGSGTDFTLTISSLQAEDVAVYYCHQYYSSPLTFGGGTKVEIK
- binding result: binds

B12: Run3_Seq2 (antibody, V domains shown)
VH: QVQLVQSGAEVRKPGASVKVSCKASGYTFTTYAIHWVRQAPGQRLEWMGWIKGGNGDTRYSQKFQGRLTITRDTFASTAYMELSSLRSEDTAVYYCALLTVVTPDDTFDIWGQGTMVTVSS
VL: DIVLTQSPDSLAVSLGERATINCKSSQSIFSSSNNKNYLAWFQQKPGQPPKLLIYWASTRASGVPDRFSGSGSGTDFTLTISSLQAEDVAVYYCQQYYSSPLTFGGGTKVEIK
- binding result: binds

B13: SFR1 (antibody, V domains shown)
VH: QVHLVQSGAEVKKPGASVKVSCKASGYTFSRYAIHWVRQAPGQRLEWMGWIKGGNGDTRYSQKFQDRVTITRDTSASTVYMDLSSLRSEDTAVYYCALLTVIRKDDTFDVWGQGTMVTVSS
VL: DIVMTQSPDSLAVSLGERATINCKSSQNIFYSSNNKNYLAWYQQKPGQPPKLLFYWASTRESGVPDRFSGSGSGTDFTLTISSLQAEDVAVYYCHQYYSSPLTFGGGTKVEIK
- binding result: binds

B14: SFR2 (antibody, V domains shown)
VH: B13 VH with D82E, Y95F
VL: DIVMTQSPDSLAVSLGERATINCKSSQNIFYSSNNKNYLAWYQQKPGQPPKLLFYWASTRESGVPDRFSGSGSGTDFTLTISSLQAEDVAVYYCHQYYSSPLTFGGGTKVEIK
- binding result: binds

B15: SFR4 (antibody, V domains shown)
VH: B13 VH with R31T, D66G, D82E, K104L, D106E
VL: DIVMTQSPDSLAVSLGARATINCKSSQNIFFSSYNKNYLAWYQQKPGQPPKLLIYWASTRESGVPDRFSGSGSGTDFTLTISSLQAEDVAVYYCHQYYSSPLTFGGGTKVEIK
- binding result: binds

B16: SFR6 (antibody, V domains shown)
VH: QVHLVQSGAEVKKPGASVKVSCKASGYTFSSYAIHWVRQAPGQRLDWMGWIKGGNGDTRYSETFQDRVTISRDTSATTVYMELSSLRSEDTAMYFCALLTVIRRDDTFDIWGQGTMVTVSS
VL: DIVLTQSPDSLAVSLGERATINCKSSQNIFFNSNKKNYLAWYQQKPRQPPKLLFYWASTRESGVPDRFSGSGSGTDFTLTISSLQAEDVAVYYCHQFYSTPLTFGGGTKVEIK
- binding result: binds

B17: Run6_Seq1 (antibody, V domains shown)
VH: QVQLVQSGAEVRKPGASVKVSCKASGYTFTRYAIHWVRQAPGQRLEWMGWIKAGNGNTRYSQKFQGRVSIIRDTSASTVYMDLSGLRSEDTAVYYCALLTVITPDDAFDIWGQGTMVTVSS
VL: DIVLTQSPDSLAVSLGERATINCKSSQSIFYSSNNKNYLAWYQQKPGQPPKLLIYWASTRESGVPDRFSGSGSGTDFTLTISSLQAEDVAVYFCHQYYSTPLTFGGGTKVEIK
- binding result: binds

B18: Run6_Seq2 (antibody, V domains shown)
VH: B17 VH with K63N, V79A
VL: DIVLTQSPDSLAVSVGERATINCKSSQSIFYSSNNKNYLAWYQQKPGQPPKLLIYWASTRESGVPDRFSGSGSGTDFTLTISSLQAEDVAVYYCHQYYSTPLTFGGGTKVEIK
- binding result: binds
